T1: human IL-36R (human, UniProt Q9HB29 20-575)
T1 sequence (looked up): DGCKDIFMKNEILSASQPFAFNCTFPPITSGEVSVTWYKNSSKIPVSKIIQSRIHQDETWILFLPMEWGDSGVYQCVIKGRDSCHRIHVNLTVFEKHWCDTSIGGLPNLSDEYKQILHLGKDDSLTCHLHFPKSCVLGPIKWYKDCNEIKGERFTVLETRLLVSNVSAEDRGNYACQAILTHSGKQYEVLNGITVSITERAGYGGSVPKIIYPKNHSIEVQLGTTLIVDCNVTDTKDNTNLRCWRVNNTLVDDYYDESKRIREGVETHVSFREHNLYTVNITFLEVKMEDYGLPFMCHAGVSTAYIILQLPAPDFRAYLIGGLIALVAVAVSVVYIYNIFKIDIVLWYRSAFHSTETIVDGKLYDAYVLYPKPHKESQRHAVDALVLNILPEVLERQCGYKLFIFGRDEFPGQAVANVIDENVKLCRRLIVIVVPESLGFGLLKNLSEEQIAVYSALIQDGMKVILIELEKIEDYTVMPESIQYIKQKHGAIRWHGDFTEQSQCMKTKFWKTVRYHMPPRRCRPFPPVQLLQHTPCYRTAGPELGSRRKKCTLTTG

T2: His-tagged human IL-1 Rrp2/IL-1 R6 protein (human, UniProt Q9HB29 20-335)
T2 construct: Bought reagent; also called Human IL-1 Rrp2/IL-1 R6 Protein, His Tag; ACRO Biosystems IL2-H52H6; not shown: His tag
T2 sequence (looked up): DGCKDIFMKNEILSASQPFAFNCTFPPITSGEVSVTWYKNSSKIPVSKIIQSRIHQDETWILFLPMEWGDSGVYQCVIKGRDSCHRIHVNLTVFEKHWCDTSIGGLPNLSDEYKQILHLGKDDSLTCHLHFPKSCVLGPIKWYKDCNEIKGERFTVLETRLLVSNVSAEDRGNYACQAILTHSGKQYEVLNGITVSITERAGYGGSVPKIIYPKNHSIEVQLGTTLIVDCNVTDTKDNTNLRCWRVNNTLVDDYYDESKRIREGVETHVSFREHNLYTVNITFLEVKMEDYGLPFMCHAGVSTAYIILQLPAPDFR


Legend:
human IL-36R [1] = target: T1, human IL-36R; assay: cell-based or functional assay
monkey IL-36R = target: T3, monkey IL-36R (monkey); assay: flow cytometry on CHO-K1 cells expressing monkey IL-36R
T3 construct: whole, on cells

human IL-36R [2] = target: T1, human IL-36R; assay: cell-based or functional assay; remark: listed apart in the source
human IL-36R [3] = target: T1, human IL-36R; assay: flow cytometry on CHO-K1 cells expressing human IL-36R
human IL-36R [4] = target: T1, human IL-36R; assay: cell-based or functional assay; remark: listed apart in the source
human IL-36R [5] = target: T1, human IL-36R; assay: cell-based or functional assay; remark: listed apart in the source
human IL-36R [6] = target: T1, human IL-36R; assay: cell-based or functional assay; remark: listed apart in the source
[7] = target: T2, His-tagged human IL-1 Rrp2/IL-1 R6 …; assay: SPR (Biacore 8K), His-tagged antigen captured by anti-His on CM5, antibody as analyte, 1:1 model
Procedure: Series S Sensor Chip CM5 was equilibrated for 20-30 min at room temperature, and then fitted in the instrument. Following the instruction manual for His Capture Kit, an anti-His antibody was immobilized onto the Series S Sensor Chip CM5. An HBS-EP+(10×) solution was diluted 10-fold in ultrapure water as the running buffer. An antigen (His-tagged human IL-1 Rrp2/IL-1 R6 protein) was diluted to 1 μg/ml and 10 μL/min using the running buffer, and loaded during 15 sec to capture around 50 RU of antigen. An antibody sample were diluted to 30 nM, 15 nM, 7.5 nM, 3.75 nM, 1.875 nM, 0.9375 nM, and 0.46875 nM using an equilibration buffer; the running buffer was taken as zero concentration; at 30 μL/min, binding and dissociation were allowed to occur for 120 s and 900 s, respectively; and the chip was regenerated with the glycine solution at pH 1.5. The sample was analyzed by a capture-based single-cycle kinetics program; the corresponding analysis program was selected to analyze the data, and it was confirmed that there was no obvious reference binding; and the Kinetics 1:1 binding model was selected for fitting analysis to acquire the kinetic parameters of the sample.

HuIL-6 detected in HIF under IL-36β stimulation IC50 (human IL-36R [1]) [µg/mL]	EC50 (monkey IL-36R) [µg/mL]	IC50, GM-CSF release under IL-36 α stimulation (NCI/ADR-RES cells) (human IL-36R [2]) [µg/mL]	IC50, GM-CSF release under IL-36 β stimulation (NCI/ADR-RES cells) (human IL-36R [2]) [µg/mL]	IC50, GM-CSF release under IL-36 γ stimulation (NCI/ADR-RES cells) (human IL-36R [2]) [µg/mL]	IC50, IL-6 release under IL-36 α stimulation (NCI/ADR-RES cells) (human IL-36R [2]) [µg/mL]	IC50, IL-6 release under IL-36 β stimulation (NCI/ADR-RES cells) (human IL-36R [2]) [µg/mL]	IC50, IL-6 release under IL-36 γ stimulation (NCI/ADR-RES cells) (human IL-36R [2]) [µg/mL]	IC50, IL-8 release under IL-36 α stimulation (NCI/ADR-RES cells) (human IL-36R [2]) [µg/mL]	IC50, IL-8 release under IL-36 β stimulation (NCI/ADR-RES cells) (human IL-36R [2]) [µg/mL]	IC50, IL-8 release under IL-36 γ stimulation (NCI/ADR-RES cells) (human IL-36R [2]) [µg/mL]	IC50, pNF-κB under IL-36 β stimulation (NCI/ADR-RES cells) (human IL-36R [2]) [ng/ml]	EC50 (human IL-36R [3]) [µg/mL]	HuIL-6 detected in HIF under IL-36α stimulation IC50 (human IL-36R [4]) [µg/mL]	pNFκB detected in HIF under IL-36β stimulation IC50 (human IL-36R [5]) [µg/mL]	HuIL-6 detected in NCI/ADR-RES under IL-36β stimulation IC50 (human IL-36R [6]) [µg/mL]	Kd [7] [pM]	koff [7] [s⁻¹]	kon [7] [M⁻¹ s⁻¹]	Binder
0.0546	0.0595	0.022	0.0174	0.0198	0.015	0.0139	0.0162	0.0315	0.0223	0.0198	71.4	0.062	0.0479	0.105	0.00887	45.2	4.37e-05	967000	humanized anti-IL-36R antibody 900527 (antibody, V domains shown, IgG1 (human IgG1 L234A/L235A, human kappa); also called HB0034) VH: QVQLVQSGAEVKKPGASVKVSCKASGYTFTSSWMHWAKQAPGQGLEWIGEIHPNSAKTNYNQKFQGRVTMTRDTSISTAYMELSRLRSDDTAVYYCARVDYGKPWFAYWGQGTLVTVSS VL: QIVLTQSPGTLSLSPGERATLSCRASSSVSSSYLHWYQQKPGQAPRLWIYSTSSRATGIPDRFSGSGSGTDFTLTISRLEPEDFATYYCQQFQSSPLTFGQGTKLEIK
–	–	0.0202	0.0186	0.021	0.0216	0.0168	0.0176	0.0304	0.022	0.018	64.9	–	–	–	–	57.9	5.1e-05	881000	humanized anti-IL-36R antibody 900534 (antibody, V domains shown, IgG1 (human IgG1 L234A/L235A, human kappa)) VH: QVQLVQSGAEVKKPGASVKVSCKASGYTFTSSWMHWAKQAPGQGLEWIGEIHPNSAKTNYNQKFQGRVTMTRDTSISTAYMELSRLRSDDTAVYYCARVDYGKPWFAYWGQGTLVTVSS VL: QIVLTQSPGTLSLSPGERATLSCRASSSVSSSYLHWYQQKPGQAPRLLIYSTSSRATGIPDRFSGSGSGTDFTLTISRLEPEDFATYYCQQFQSSPLTFGQGTKLEIK
–	–	0.0206	0.0184	0.0179	0.0124	0.0223	0.0121	0.0398	0.0221	0.018	105	–	–	–	–	14.8	1.34e-05	904000	humanized anti-IL-36R antibody 900513 (antibody, V domains shown, IgG1; built from the chimeric expression plasmids (human IgG1 L234A/L235A, human kappa)) VH: QVQLVQSGAEVKKPGASVKVSCKASGYTFTSSWMHWAKQAPGQGLEWIGEIHPNSAKTNYNQKFQGRVTMTRDTSISTAYMELSRLRSDDTAVYYCARVDYGKPWFAYWGQGTLVTVSS VL: EIVLTQSPGTLSLSPGERATLSCSASSSVSSSYLHWYQQKPGQAPRLWIYSTSNRATGIPDRFSGSGSGTDFTLTISRLEPEDFATYYCQQFQSSPLTFGQGTKLEIK
0.0837	–	0.0328	0.0224	0.0288	0.0332	0.0204	0.0198	0.0439	0.0292	0.0284	115	–	0.146	0.1	–	25.4	1.68e-05	660000	anti-IL-36R chimeric antibody 900497 (antibody, V domains shown, Human-mouse chimera: human IgG1 heavy-chain constant region with L234A and L235A (Eu numbering), human kappa constant region) VH: QVQLQQTGSVLVRPGTSVKLSCKASGYTFTSSWMHWAKQRPGQGLEWIGEIHPNSAKTNYNEKFKGKATLTVDTFSSTAYVDLSSLASEDSAVYYCARVDYGKPWFAYWGQGTLVTVSA VL: QIVLTQSPTIMSASPGERVTMTCSASSSVSSSYLHWYQQKPGSSPKLWIYSTSNLASGVPARFSGSGSGTSYSLTINSMEAEDAATYYCQQFQSSPLTFGAGTKLGLK

From patent US20230399409A1 (SHANGHAI HUAOTA BIOPHARMACEUTICAL, published 2023)
